Experimental findings from patent US20130210709A1 (ANCHOR THERAPEUTICS, published 2013) are described below.

The target of the test is CXCR4 receptor (human, UniProt P61073 1-352). In words: cell-based or functional assay.

Square brackets hold non-standard residues; d marks the D form. * marks the point of attachment. Palmitoyl = CCCCCCCCCCCCCCCC(=O)*

CXCR4 receptor, sequence (P61073 whole entry): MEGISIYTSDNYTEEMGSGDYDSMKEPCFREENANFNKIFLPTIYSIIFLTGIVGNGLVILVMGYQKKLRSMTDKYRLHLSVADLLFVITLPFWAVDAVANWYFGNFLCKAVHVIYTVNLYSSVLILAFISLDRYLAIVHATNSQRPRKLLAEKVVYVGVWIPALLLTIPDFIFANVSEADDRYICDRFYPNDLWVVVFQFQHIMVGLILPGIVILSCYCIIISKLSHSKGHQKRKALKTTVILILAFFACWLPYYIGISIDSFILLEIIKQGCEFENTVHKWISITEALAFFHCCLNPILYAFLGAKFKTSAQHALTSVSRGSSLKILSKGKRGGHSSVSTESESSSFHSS

B1: CXCR4 i1 loop compound 132 (peptide)
peptide: Palmitoyl-MGYAKKLRSMTDKYRL-NH2
SMILES: CCCCCCCCCCCCCCCC(=O)N[C@@H](CCSC)C(=O)NCC(=O)N[C@@H](Cc1ccc(O)cc1)C(=O)N[C@@H](C)C(=O)N[C@@H](CCCCN)C(=O)N[C@@H](CCCCN)C(=O)N[C@@H](CC(C)C)C(=O)N[C@@H](CCCNC(=N)N)C(=O)N[C@@H](CO)C(=O)N[C@@H](CCSC)C(=O)N[C@H](C(=O)N[C@@H](CC(=O)O)C(=O)N[C@@H](CCCCN)C(=O)N[C@@H](Cc1ccc(O)cc1)C(=O)N[C@@H](CCCNC(=N)N)C(=O)N[C@@H](CC(C)C)C(N)=O)[C@@H](C)O
For the molecule B1, the “IC50 (nM), calcium flux, CCRF-CEM” value came to 213 nM.

B2: CXCR4 i1 loop compound 166 (peptide)
peptide: Palmitoyl-MG[dY]QKKLRSMTDKYRL-NH2
Consider B2, for which the “IC50 (nM), calcium flux, CCRF-CEM” value worked out at 129 nM.

B3: CXCR4 i1 loop compound 151 (peptide)
peptide: Palmitoyl-MGYQKKLRSMTDKARL-NH2
SMILES: CCCCCCCCCCCCCCCC(=O)N[C@@H](CCSC)C(=O)NCC(=O)N[C@@H](Cc1ccc(O)cc1)C(=O)N[C@@H](CCC(N)=O)C(=O)N[C@@H](CCCCN)C(=O)N[C@@H](CCCCN)C(=O)N[C@@H](CC(C)C)C(=O)N[C@@H](CCCNC(=N)N)C(=O)N[C@@H](CO)C(=O)N[C@@H](CCSC)C(=O)N[C@H](C(=O)N[C@@H](CC(=O)O)C(=O)N[C@@H](CCCCN)C(=O)N[C@@H](C)C(=O)N[C@@H](CCCNC(=N)N)C(=O)N[C@@H](CC(C)C)C(N)=O)[C@@H](C)O
B3: the “IC50 (nM), calcium flux, CCRF-CEM” value is above 10000 nM.

B4: CXCR4 i1 loop compound 160 (peptide)
peptide: Palmitoyl-MGYQKKLRSMTDKY[dR]L-NH2
Turning to B4, the “IC50 (nM), calcium flux, CCRF-CEM” value is 5730 nM.

B5: CXCR4 i1 loop compound 164 (peptide)
peptide: Palmitoyl-MGYQKKLRSM[dT]DKYRL-NH2
Consider B5, for which the “IC50 (nM), calcium flux, CCRF-CEM” value turned out to be 322 nM.

B6: CXCR4 i1 loop compound 131 (peptide)
peptide: Palmitoyl-MGAQKKLRSMTDKYRL-NH2
SMILES: CCCCCCCCCCCCCCCC(=O)N[C@@H](CCSC)C(=O)NCC(=O)N[C@@H](C)C(=O)N[C@@H](CCC(N)=O)C(=O)N[C@@H](CCCCN)C(=O)N[C@@H](CCCCN)C(=O)N[C@@H](CC(C)C)C(=O)N[C@@H](CCCNC(=N)N)C(=O)N[C@@H](CO)C(=O)N[C@@H](CCSC)C(=O)N[C@H](C(=O)N[C@@H](CC(=O)O)C(=O)N[C@@H](CCCCN)C(=O)N[C@@H](Cc1ccc(O)cc1)C(=O)N[C@@H](CCCNC(=N)N)C(=O)N[C@@H](CC(C)C)C(N)=O)[C@@H](C)O
Regarding B6, the “IC50 (nM), calcium flux, CCRF-CEM” value was 147 nM.

B7: CXCR4 i1 loop compound 161 (peptide)
peptide: Palmitoyl-MGYQKKLRSMTDK[dY]RL-NH2
On to B7, for which the “IC50 (nM), calcium flux, CCRF-CEM” value is above 10000 nM.

B8: CXCR4 i1 loop compound 134 (peptide)
peptide: Palmitoyl-MGYQKALRSMTDKYRL-NH2
SMILES: CCCCCCCCCCCCCCCC(=O)N[C@@H](CCSC)C(=O)NCC(=O)N[C@@H](Cc1ccc(O)cc1)C(=O)N[C@@H](CCC(N)=O)C(=O)N[C@@H](CCCCN)C(=O)N[C@@H](C)C(=O)N[C@@H](CC(C)C)C(=O)N[C@@H](CCCNC(=N)N)C(=O)N[C@@H](CO)C(=O)N[C@@H](CCSC)C(=O)N[C@H](C(=O)N[C@@H](CC(=O)O)C(=O)N[C@@H](CCCCN)C(=O)N[C@@H](Cc1ccc(O)cc1)C(=O)N[C@@H](CCCNC(=N)N)C(=O)N[C@@H](CC(C)C)C(N)=O)[C@@H](C)O
For the molecule B8, the “IC50 (nM), calcium flux, CCRF-CEM” value is 250 nM.

B9: CXCR4 i1 loop compound 150 (peptide)
peptide: Palmitoyl-MGYQKKLRSMTDAYRL-NH2
SMILES: CCCCCCCCCCCCCCCC(=O)N[C@@H](CCSC)C(=O)NCC(=O)N[C@@H](Cc1ccc(O)cc1)C(=O)N[C@@H](CCC(N)=O)C(=O)N[C@@H](CCCCN)C(=O)N[C@@H](CCCCN)C(=O)N[C@@H](CC(C)C)C(=O)N[C@@H](CCCNC(=N)N)C(=O)N[C@@H](CO)C(=O)N[C@@H](CCSC)C(=O)N[C@H](C(=O)N[C@@H](CC(=O)O)C(=O)N[C@@H](C)C(=O)N[C@@H](Cc1ccc(O)cc1)C(=O)N[C@@H](CCCNC(=N)N)C(=O)N[C@@H](CC(C)C)C(N)=O)[C@@H](C)O
Turning to B9, the “IC50 (nM), calcium flux, CCRF-CEM” value is 313 nM.

B10: CXCR4 i1 loop compound 167 (peptide)
peptide: Palmitoyl-MGY[dQ]KKLRSMTDKYRL-NH2
As to B10, the “IC50 (nM), calcium flux, CCRF-CEM” value was 116 nM.

B11: CXCR4 i1 loop compound 168 (peptide)
peptide: Palmitoyl-MGYQ[dK]KLRSMTDKYRL-NH2
For B11, the “IC50 (nM), calcium flux, CCRF-CEM” value is 119 nM.

B12: CXCR4 i1 loop compound 173 (peptide)
peptide: Palmitoyl-MGYQKKLRS[dM]TDKYRL-NH2
For B12, the “IC50 (nM), calcium flux, CCRF-CEM” value came out at 97 nM.

B13: CXCR4 i1 loop compound 163 (peptide)
peptide: Palmitoyl-MGYQKKLRSMT[dD]KYRL-NH2
In the case of B13, the “IC50 (nM), calcium flux, CCRF-CEM” value worked out at 623 nM.

B14: CXCR4 i1 loop compound 130 (peptide)
peptide: Palmitoyl-MAYQKKLRSMTDKYRL-NH2
SMILES: CCCCCCCCCCCCCCCC(=O)N[C@@H](CCSC)C(=O)N[C@@H](C)C(=O)N[C@@H](Cc1ccc(O)cc1)C(=O)N[C@@H](CCC(N)=O)C(=O)N[C@@H](CCCCN)C(=O)N[C@@H](CCCCN)C(=O)N[C@@H](CC(C)C)C(=O)N[C@@H](CCCNC(=N)N)C(=O)N[C@@H](CO)C(=O)N[C@@H](CCSC)C(=O)N[C@H](C(=O)N[C@@H](CC(=O)O)C(=O)N[C@@H](CCCCN)C(=O)N[C@@H](Cc1ccc(O)cc1)C(=O)N[C@@H](CCCNC(=N)N)C(=O)N[C@@H](CC(C)C)C(N)=O)[C@@H](C)O
Consider B14, for which the “IC50 (nM), calcium flux, CCRF-CEM” value was 125 nM.

B15: CXCR4 i1 loop compound 172 (peptide)
peptide: Palmitoyl-MGYQKKLR[dS]MTDKYRL-NH2
Consider B15, for which the “IC50 (nM), calcium flux, CCRF-CEM” value was 90 nM.

B16: CXCR4 i1 loop compound 129 (peptide)
peptide: Palmitoyl-AGYQKKLRSMTDKYRL-NH2
SMILES: CCCCCCCCCCCCCCCC(=O)N[C@@H](C)C(=O)NCC(=O)N[C@@H](Cc1ccc(O)cc1)C(=O)N[C@@H](CCC(N)=O)C(=O)N[C@@H](CCCCN)C(=O)N[C@@H](CCCCN)C(=O)N[C@@H](CC(C)C)C(=O)N[C@@H](CCCNC(=N)N)C(=O)N[C@@H](CO)C(=O)N[C@@H](CCSC)C(=O)N[C@H](C(=O)N[C@@H](CC(=O)O)C(=O)N[C@@H](CCCCN)C(=O)N[C@@H](Cc1ccc(O)cc1)C(=O)N[C@@H](CCCNC(=N)N)C(=O)N[C@@H](CC(C)C)C(N)=O)[C@@H](C)O
B16: the “IC50 (nM), calcium flux, CCRF-CEM” value was 197 nM.

B17: CXCR4 i1 loop compound 133 (peptide)
peptide: Palmitoyl-MGYQAKLRSMTDKYRL-NH2
SMILES: CCCCCCCCCCCCCCCC(=O)N[C@@H](CCSC)C(=O)NCC(=O)N[C@@H](Cc1ccc(O)cc1)C(=O)N[C@@H](CCC(N)=O)C(=O)N[C@@H](C)C(=O)N[C@@H](CCCCN)C(=O)N[C@@H](CC(C)C)C(=O)N[C@@H](CCCNC(=N)N)C(=O)N[C@@H](CO)C(=O)N[C@@H](CCSC)C(=O)N[C@H](C(=O)N[C@@H](CC(=O)O)C(=O)N[C@@H](CCCCN)C(=O)N[C@@H](Cc1ccc(O)cc1)C(=O)N[C@@H](CCCNC(=N)N)C(=O)N[C@@H](CC(C)C)C(N)=O)[C@@H](C)O
As for B17, the “IC50 (nM), calcium flux, CCRF-CEM” value came out at 200 nM.

B18: CXCR4 i1 loop compound 165 (peptide)
peptide: Palmitoyl-[dM]GYQKKLRSMTDKYRL-NH2
As to B18, the “IC50 (nM), calcium flux, CCRF-CEM” value stood at 112 nM.

B19: CXCR4 i1 loop compound 162 (peptide)
peptide: Palmitoyl-MGYQKKLRSMTD[dK]YRL-NH2
Consider B19, for which the “IC50 (nM), calcium flux, CCRF-CEM” value worked out at 291 nM.

B20: CXCR4 i1 loop compound 170 (peptide)
peptide: Palmitoyl-MGYQKK[dL]RSMTDKYRL-NH2
In the case of B20, the “IC50 (nM), calcium flux, CCRF-CEM” value came to 72 nM.

B21: CXCR4 i1 loop compound 169 (peptide)
peptide: Palmitoyl-MGYQK[dK]LRSMTDKYRL-NH2
Take B21: the “IC50 (nM), calcium flux, CCRF-CEM” value amounted to 88 nM.

B22: CXCR4 i1 loop compound 153 (peptide)
peptide: Palmitoyl-MGYQKKLRSMTDKYRA-NH2
SMILES: CCCCCCCCCCCCCCCC(=O)N[C@@H](CCSC)C(=O)NCC(=O)N[C@@H](Cc1ccc(O)cc1)C(=O)N[C@@H](CCC(N)=O)C(=O)N[C@@H](CCCCN)C(=O)N[C@@H](CCCCN)C(=O)N[C@@H](CC(C)C)C(=O)N[C@@H](CCCNC(=N)N)C(=O)N[C@@H](CO)C(=O)N[C@@H](CCSC)C(=O)N[C@H](C(=O)N[C@@H](CC(=O)O)C(=O)N[C@@H](CCCCN)C(=O)N[C@@H](Cc1ccc(O)cc1)C(=O)N[C@@H](CCCNC(=N)N)C(=O)N[C@@H](C)C(N)=O)[C@@H](C)O
Turning to B22, the “IC50 (nM), calcium flux, CCRF-CEM” value is above 10000 nM.

B23: CXCR4 i1 loop compound 171 (peptide)
peptide: Palmitoyl-MGYQKKL[dR]SMTDKYRL-NH2
For B23, the “IC50 (nM), calcium flux, CCRF-CEM” value turned out to be 72 nM.

B24: CXCR4 i1 loop compound 152 (peptide)
peptide: Palmitoyl-MGYQKKLRSMTDKYAL-NH2
SMILES: CCCCCCCCCCCCCCCC(=O)N[C@@H](CCSC)C(=O)NCC(=O)N[C@@H](Cc1ccc(O)cc1)C(=O)N[C@@H](CCC(N)=O)C(=O)N[C@@H](CCCCN)C(=O)N[C@@H](CCCCN)C(=O)N[C@@H](CC(C)C)C(=O)N[C@@H](CCCNC(=N)N)C(=O)N[C@@H](CO)C(=O)N[C@@H](CCSC)C(=O)N[C@H](C(=O)N[C@@H](CC(=O)O)C(=O)N[C@@H](CCCCN)C(=O)N[C@@H](Cc1ccc(O)cc1)C(=O)N[C@@H](C)C(=O)N[C@@H](CC(C)C)C(N)=O)[C@@H](C)O
Regarding B24, the “IC50 (nM), calcium flux, CCRF-CEM” value was above 10000 nM.

B25: CXCR4 i1 loop compound 159 (peptide)
peptide: Palmitoyl-MGYQKKLRSMTDKYR[dL]-NH2
On to B25, for which the “IC50 (nM), calcium flux, CCRF-CEM” value was above 10000 nM.
